One test has as its target T1, dog activated Protein C (dog, UniProt Q28278 43-456).
T1 construct: mature; also called dog aPC; dAPC
T1 sequence (looked up): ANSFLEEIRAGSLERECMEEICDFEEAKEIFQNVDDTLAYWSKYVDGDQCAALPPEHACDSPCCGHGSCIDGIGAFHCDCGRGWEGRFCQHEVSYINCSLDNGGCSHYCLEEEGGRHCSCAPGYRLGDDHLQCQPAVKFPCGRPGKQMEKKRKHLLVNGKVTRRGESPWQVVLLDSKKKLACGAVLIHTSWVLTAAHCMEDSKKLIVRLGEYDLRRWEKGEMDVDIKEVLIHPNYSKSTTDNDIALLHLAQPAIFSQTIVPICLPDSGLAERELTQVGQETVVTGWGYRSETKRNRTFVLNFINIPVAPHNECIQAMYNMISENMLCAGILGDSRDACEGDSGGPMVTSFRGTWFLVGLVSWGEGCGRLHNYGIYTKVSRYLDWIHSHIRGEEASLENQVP
The test can be described thus: direct ELISA, antigen coated at 1 ug/ml, IgG at 20 nM, anti-human IgG-HRP, AmplexRed (RFU).

The target in test [1] is T2, human activated Protein C (human, UniProt P04070 43-461).
T2 construct: also called human aPC; hAPC
The test is described as follows: ELISA titration, IgG against Fab.

Test [2] deals with T2, human activated Protein C. The test can be described thus: direct ELISA, aPC coated, hIgG1. For orientation: ELISA stands for enzyme-linked immunosorbent assay.
Test [3] addresses T2, human activated Protein C. The test is described as follows: cell-based or functional assay.

B1: R41E3 hIgG1 (antibody, V domains shown)
VH: EVQLLESGGGLVQPGGSLRLSCAASGFTFNNYAMTWVRQAPGKGLEWVSGVSWNGSRTHYADSVKGRFTISRDNSKNTLYLQMNSLRAEDTAVYYCARADSSSAGRWAGSLDYWGQGTLVTVTS
VL: LTQPPSASGTPGQRVTISCSGSSSNIGNNAVNWYQQLPGTAPKLLIYSNNQRPSGVPDRFSGSKSGTSASLAISGLRSEDEADYYCSSYTSSSTHVVFGGGTKLTVLG
notes: also called R41E3-IgG
On to B1, for which the binding result with dog activated Protein C is “no binding (tested: 20 nM)”. Also, the “fold increase of binding affinity against the corresponding Fab” value in test [1] is roughly 50 fold. Moreover, a half-maximal effect in test [2] (EC50) was put at 1.76 nM. The “aPTT, inhibition of aPC activity at 163-fold molar excess” value in test [3] was roughly 80%.

These data come from patent US20150307625A1 (Bayer, published 2015).
